Values quoted from earlier work as cited in PMC3210788.

Target: VEGFR-1 (Mus musculus) (UniProt P35969)
Chain of UniProt P35969 (P35969 23-1333 S1181G): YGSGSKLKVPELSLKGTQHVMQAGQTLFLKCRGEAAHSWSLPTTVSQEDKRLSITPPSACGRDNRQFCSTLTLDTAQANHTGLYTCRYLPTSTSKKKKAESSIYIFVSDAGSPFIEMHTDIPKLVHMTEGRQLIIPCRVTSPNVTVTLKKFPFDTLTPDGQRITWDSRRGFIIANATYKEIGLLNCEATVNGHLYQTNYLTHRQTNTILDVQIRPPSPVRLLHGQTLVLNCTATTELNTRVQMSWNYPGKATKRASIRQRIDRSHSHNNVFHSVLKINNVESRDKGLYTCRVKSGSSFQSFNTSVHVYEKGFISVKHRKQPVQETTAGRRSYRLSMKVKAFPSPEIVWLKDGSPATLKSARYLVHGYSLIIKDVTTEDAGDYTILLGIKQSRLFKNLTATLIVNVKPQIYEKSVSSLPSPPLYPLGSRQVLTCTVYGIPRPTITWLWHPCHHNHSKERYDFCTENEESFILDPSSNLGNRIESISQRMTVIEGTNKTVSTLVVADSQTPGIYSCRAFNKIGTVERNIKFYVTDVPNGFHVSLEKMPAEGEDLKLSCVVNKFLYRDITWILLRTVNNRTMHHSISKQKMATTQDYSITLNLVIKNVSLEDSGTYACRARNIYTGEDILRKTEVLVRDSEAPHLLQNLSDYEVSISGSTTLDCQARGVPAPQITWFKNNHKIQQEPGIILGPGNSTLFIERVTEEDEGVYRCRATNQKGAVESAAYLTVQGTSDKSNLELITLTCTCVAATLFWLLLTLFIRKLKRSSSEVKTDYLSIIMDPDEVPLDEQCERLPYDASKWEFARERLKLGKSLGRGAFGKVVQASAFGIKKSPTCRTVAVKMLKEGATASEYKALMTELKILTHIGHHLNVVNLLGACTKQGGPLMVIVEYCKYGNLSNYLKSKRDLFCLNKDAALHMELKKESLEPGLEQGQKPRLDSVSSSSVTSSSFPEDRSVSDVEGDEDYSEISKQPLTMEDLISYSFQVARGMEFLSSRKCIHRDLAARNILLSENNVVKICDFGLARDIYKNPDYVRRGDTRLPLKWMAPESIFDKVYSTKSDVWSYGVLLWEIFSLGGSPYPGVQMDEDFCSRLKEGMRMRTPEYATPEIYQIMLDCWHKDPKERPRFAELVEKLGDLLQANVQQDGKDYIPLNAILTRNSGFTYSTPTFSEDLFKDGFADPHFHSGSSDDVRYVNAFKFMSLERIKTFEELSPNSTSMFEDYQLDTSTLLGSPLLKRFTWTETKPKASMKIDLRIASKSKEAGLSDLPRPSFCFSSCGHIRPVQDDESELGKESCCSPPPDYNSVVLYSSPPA

For VEGF (from UniProt Q00731), the Kd is listed as 0.033 nM.
